Assays:
Test in all cases: flow cytometry, transfected CHO cells; crude undiluted periplasmic scFv extract; anti-FLAG M2 + anti-mouse IgG Fcγ-PE; control PBS/2% FCS
[1] = biological target: Hu CDH3 Dom3 mu (aa 328-440), human/mouse chimeric CDH3 on CHO cells (chimeric hu/mu)
Protocol: (§1) Cells transfected with human or murine CDH3, or with the chimeric human/mouse CDH3 molecules (see Example 1) were stained with crude, undiluted periplasmic extract containing scFv binding to human/macaque CDH3. […] As negative control, cells were incubated with PBS/2% FCS instead of the periplasmic extract. The samples were measured by flow cytometry.

[2] = biological target: T1, Hu CDH3 Dom1C mu (aa 180-215), human/mouse chimeric CDH3 on CHO cells (chimeric hu/mu, UniProt P22223 108-681 (human entry))
T1 chain: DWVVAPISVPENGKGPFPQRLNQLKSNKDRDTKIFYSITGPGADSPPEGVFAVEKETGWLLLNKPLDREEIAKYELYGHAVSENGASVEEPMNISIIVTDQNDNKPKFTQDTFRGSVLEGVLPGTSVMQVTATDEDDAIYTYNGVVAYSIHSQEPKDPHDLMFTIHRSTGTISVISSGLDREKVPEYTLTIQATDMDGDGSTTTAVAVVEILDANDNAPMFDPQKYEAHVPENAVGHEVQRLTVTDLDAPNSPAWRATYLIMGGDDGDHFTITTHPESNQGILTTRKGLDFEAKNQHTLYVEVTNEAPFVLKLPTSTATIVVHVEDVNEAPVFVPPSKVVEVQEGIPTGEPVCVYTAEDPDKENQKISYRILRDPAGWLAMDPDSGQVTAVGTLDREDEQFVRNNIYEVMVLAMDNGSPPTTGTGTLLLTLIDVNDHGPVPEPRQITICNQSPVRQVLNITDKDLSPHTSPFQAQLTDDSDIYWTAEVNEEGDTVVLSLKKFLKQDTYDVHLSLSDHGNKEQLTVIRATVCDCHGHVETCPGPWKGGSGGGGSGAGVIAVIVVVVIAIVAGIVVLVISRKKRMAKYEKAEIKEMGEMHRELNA
Protocol: as §1

[3] = biological target: T2, Hu CDH3 Dom2 mu (aa 216-327), human/mouse chimeric CDH3 on CHO cells (chimeric hu/mu)
T2 chain: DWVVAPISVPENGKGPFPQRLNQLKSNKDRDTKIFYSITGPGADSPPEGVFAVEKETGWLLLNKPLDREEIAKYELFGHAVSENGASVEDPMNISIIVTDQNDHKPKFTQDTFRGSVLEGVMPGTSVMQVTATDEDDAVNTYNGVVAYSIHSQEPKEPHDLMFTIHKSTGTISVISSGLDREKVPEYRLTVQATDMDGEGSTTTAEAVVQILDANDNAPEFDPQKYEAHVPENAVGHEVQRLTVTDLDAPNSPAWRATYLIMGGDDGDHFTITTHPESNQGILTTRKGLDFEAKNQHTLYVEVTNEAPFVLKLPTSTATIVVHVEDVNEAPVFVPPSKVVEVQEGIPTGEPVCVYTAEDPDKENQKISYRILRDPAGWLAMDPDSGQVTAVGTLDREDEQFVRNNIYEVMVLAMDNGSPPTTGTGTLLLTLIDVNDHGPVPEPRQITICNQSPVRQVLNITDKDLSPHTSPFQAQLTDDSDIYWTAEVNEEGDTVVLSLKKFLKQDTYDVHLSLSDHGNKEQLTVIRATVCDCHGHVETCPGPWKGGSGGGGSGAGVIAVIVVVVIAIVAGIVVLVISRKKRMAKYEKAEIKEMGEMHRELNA
Protocol: as §1

Measured: binding result

B1: CDH3-10 scFv (scFv)
scFv: EVQLVEESGGGLVKPGGSLKLSCAASGFTFSSYAMSWVRQTPDKRLEWVATISSGGHYTYYPDSVKGRFTISRDNAKNTLYLQMSSLKSEDTAMYYCASYYYGIPFGYWGQGTTVTVSSGGGGSGGGGSGGGGSELVMTQSPSSLSASLGEGVSLTCRASQDIGINLIWLRQEPDGTIKRLIYDTSSLDSGVPKRFSGSRSGSDYSLTISSLESEDFVHYYCLQYGSSPLTFGAGTKLEIK
binds: all assays above

B2: CDH3-8 (scFv)
scFv: EVQLVEQSGAEVVKPGASVKITCKASGYAFSSYWMNWVRQRPGKGLEWIGHIYPGDGDTNYNGKFKGKVTLTADKSSNTAYMQLSDLTPEDSAVYFCARDRGSFGAWFAYWGQGTTVTVSSGGGGSGGGGSGGGGSELVMTQTPSSLSASLGDRVTISCRASQDISNYLNWYQQKPDGTVKLLIYYTSRLHSGVPSRFSGSGSGTDYSLTISNLEQEDIATYFCQQGNRNPPTFGGGTKLEIK
notes: Used as crude periplasmic extract and detected through a FLAG tag; also called CDH3-8 scFv
binds: all assays above

B3: CDH3-9 (scFv)
scFv: EVQLVEESGGDLVKPGGSLKLSCAASGFTFSTYGMSWVRQTPDKRLEWVATISSGGHYSYYPDSVKGRFTISRDNAKNTLYLQMSSLKSEDTAMYYCASYYYGSPFAYWGQGTTVTVSSGGGGSGGGGSGGGGSELQMTQSPSSLSASLGERVSLTCRASQDIGSSLNWLQQKPDGTIKRLIYDTSSLDSGVPKRFSGSRSGSDYSLTISSLESEDFGDYYCVQYGSSPLTFGAGTKLEIK
notes: Used as crude periplasmic extract and detected through a FLAG tag; also called CDH3-9 scFv
binds: all assays above
